Substitutions are numbered along the chain they refer to. Names may count otherwise.
B1: Bis-40E9-L2H9 (bispecific antibody)
VH: EVQLVQSGAEVKKPGASVKVSCKASGYTFTSYVIHWVRQAPGQGLEWMGYFNPYNDGTKYNEEFKGRVTLTSDKSTSTAYMELRSLRSDDTAVYYCARGGVRRYFDVWGQGTTVTVSS
VL: DIQMTQSPSSLSASVGDRVTITCRASQDIGSNLNWLQQKPGKAIKRLIYATFGLDSGVPSRFSGSRSGTDFTLTISSLQPEDFATYYCQQYASFPYTFGGGTKVEIK
scFv: EVQLVQSGAEVKKPGSSVKVSCKASGYTFSSYVIHWVRQAPGQCLEWMGYINPYSDVIKYNEKFKGRVTLTSDKSTSTAYMELSSLRSEDTAVYYCARESFYSYDGFAYWGQGTLVTVSSGGGGSGGGGSGGGGSGGGGSEIVLTQSPDFQSVTPKEKVTITCSASSSVSYMHWYQQKPDQSPKRLIYDTSKLASGVPSRFSGSGSGTDFTLTINSLEAEDAATYYCQQWSSNPPTFGCGTKVEIK
notes: L234A/L235A
B2: Bis-108+ch147 (bispecific antibody, V domains shown)
VH 1: B1 VH
VL 1: B1 VL
VH 2: QVQLQQPGTELVKPGTSVKLSCKASGYTFTSYWMHWVKQRPGQCLEWIGNINPSNGATNYNEKFKSKATLTVDKSSSTAYMQLSSLTSEDSAVYYCARDRSSQYYFDYWGQGTTLTVSS
VL 2: DIVMSQSPSSLAVSAGEKVTMSCKSSQSLLNSRSRKNYLAWYQQKPGQSPKLLIYWASTRESGVPDRFTGSGSGTDFTLTISSVQAEDLAVYYCTQSYTLRTFGCGTKLEIK
notes: Fab-scFv-Fab (2+1): two humanized anti-GPRC5D Fabs (first VH/VL) and one anti-CD3 scFv (second VH/VL, parental clone 147E11E2)
B3: Bis-108+147-S32T.L (bispecific antibody, V domains shown)
VH 1: B1 VH
VL 1: B1 VL
VH 2: EVQLVQSGAEVKKPGSSVKVSCKASGYTFTSYWMHWVRQAPGQCLEWMGNINPSSGATNYNEKFKSRVTLTVDKSTSTAYMELSSLRSEDTAVYYCARDRSSQYYFDYWGQGTTVTVSS
VL 2: DIVMTQSPDSLAVSLGERATINCKSSQSLLNTRSRKNYLAWYQQKPGQPPKLLIYWASTRESGVPDRFSGSGSGTDFTLTISSLQAEDVAVYYCTQSYTLRTFGCGTKVEIK
notes: Fab-scFv-Fab (2+1): first VH/VL = anti-GPRC5D Fabs, second VH/VL = anti-CD3 scFv
B4: Bis-108+147-N37K.L (bispecific antibody, V domains shown)
VH 1: B1 VH
VL 1: B1 VL
VH 2: B3 VH 2
VL 2: B3 VL 2 with T32S, N37K
notes: as for B3
B5: Bis-108+147-N31Y.L (bispecific antibody, V domains shown)
VH 1: B1 VH
VL 1: B1 VL
VH 2: B3 VH 2
VL 2: B3 VL 2 with N31Y, T32S
notes: as for B3
B6: Bis-40E9-L2H7 (bispecific antibody)
VH: B1 VH
VL: B1 VL
scFv: B1 scFv with Y54G, S55N, D56G, E99D, F101Y, Y102S
notes: L234A/L235A
B7: Bis-108+147-R33A.L (bispecific antibody, V domains shown)
VH 1: B1 VH
VL 1: B1 VL
VH 2: B3 VH 2
VL 2: B3 VL 2 with T32S, R33A
notes: as for B3
B8: Bis-40E9-L2H6 (bispecific antibody)
VH: B1 VH
VL: B1 VL
scFv: B1 scFv with S55N, Y102S
notes: L234A/L235A
B9: Bis-40E9-L2H14 (bispecific antibody)
VH: B1 VH
VL: B1 VL
scFv: B1 scFv with S55N, F101Y
notes: L234A/L235A
B10: Bis-108+147-K36R.L (bispecific antibody, V domains shown)
VH 1: B1 VH
VL 1: B1 VL
VH 2: B3 VH 2
VL 2: B3 VL 2 with T32S, K36R
notes: as for B3
B11: Bis-40E9-L2H16 (bispecific antibody)
VH: B1 VH
VL: B1 VL
scFv: B1 scFv with S31D, S55N, E99D, F101Y
notes: L234A/L235A
B12: Bis-40E9-L2H10 (bispecific antibody)
VH: B1 VH
VL: B1 VL
scFv: B1 scFv with S55N, E99D, F101Y, D105E, G106A
notes: L234A/L235A
B13: Bis-40E9-L2H11 (bispecific antibody)
VH: B1 VH
VL: B1 VL
scFv: B1 scFv with S55N, E99D, F101Y, D105R, G106A
notes: L234A/L235A
B14: Bis-40E9-L5H7 (bispecific antibody)
VH: B1 VH
VL: B1 VL
scFv: B1 scFv with Y54G, S55N, D56G, E99D, F101Y, Y102S, S231R, N233S
notes: L234A/L235A
B15: Bis-40E9-L2H6 (bispecific antibody)
heavy 1: not shown
heavy 2: EVQLVQSGAEVKKPGASVKVSCKASGYTFTSYVIHWVRQAPGQGLEWMGYFNPYNDGTKYNEEFKGRVTLTSDKSTSTAYMELRSLRSDDTAVYYCARGGVRRYFDVWGQGTTVTVSSASTKGPSVFPLAPSSKSTSGGTAALGCLVKDYFPEPVTVSWNSGALTSGVHTFPAVLQSSGLYSLSSVVTVPSSSLGTQTYICNVNHKPSNTKVDKKVEPKSCGGGGSGGGGSEVQLVQSGAEVKKPGSSVKVSCKASGYTFSSYVIHWVRQAPGQCLEWMGYINPYNDVIKYNEKFKGRVTLTSDKSTSTAYMELSSLRSEDTAVYYCARESFSSYDGFAYWGQGTLVTVSSGGGGSGGGGSGGGGSGGGGSEIVLTQSPDFQSVTPKEKVTITCSASSSVSYMHWYQQKPDQSPKRLIYDTSKLASGVPSRFSGSGSGTDFTLTINSLEAEDAATYYCQQWSSNPPTFGCGTKVEIKGGGGSGGGGSDKTHTCPPCPAPEAAGGPSVFLFPPKPKDTLMISRTPEVTCVVVDVSHEDPEVKFNWYVDGVEVHNAKTKPREEQYNSTYRVVSVLTVLHQDWLNGKEYKCKVSNKALPAPIEKTISKAKGQPREPQVCTLPPSREEMTKNQVSLSCAVKGFYPSDIAVEWESNGQPENNYKTTPPVLDSDGSFFLVSKLTVDKSRWQQGNVFSCSVMHEALHNHYTQKSLSLSPGK
light: DIQMTQSPSSLSASVGDRVTITCRASQDIGSNLNWLQQKPGKAIKRLIYATFGLDSGVPSRFSGSRSGTDFTLTISSLQPEDFATYYCQQYASFPYTFGGGTKVEIKRTVAAPSVFIFPPSDEQLKSGTASVVCLLNNFYPREAKVQWKVDNALQSGNSQESVTEQDSKDSTYSLSSTLTLSKADYEKHKVYACEVTHQGLSSPVTKSFNRGEC
notes: Fab-scFv-Fab format with LALA mutations
B16: Bis-40E9-L5H7 (bispecific antibody)
heavy 1: not shown
heavy 2: B15 heavy 2 with Y285G, D287G, E330D, F332Y, S462R, N464S
light: B15 light
notes: Fab-scFv-Fab format with LALA mutations; copies: 1 + 1 + 2
B17: Bis-40E9-L2H10 (bispecific antibody)
heavy 1: not shown
heavy 2: B15 heavy 2 with E330D, F332Y, S333Y, D336E, G337A
light: B15 light
notes: as for B16
B18: Bis-40E9-L2H9 (bispecific antibody)
heavy 1: not shown
heavy 2: B15 heavy 2 with N286S, S333Y
light: B15 light
notes: as for B15

Key:
[1] = target: T1, CD3 on T cells / Jurkat cells (human, UniProt P07766 23-207; P04234 22-171; P09693 23-182); test: FACS on Jurkat cells
T1 construct: whole, on cells; Native CD3 complex on CD3+ T cells isolated from normal donors or on Jurkat cells; also called human CD3; CD3+ T cells

[2] = target: T2, GPRC5D on multiple myeloma cells (human, UniProt Q9NZD1 1-345); test: FACS on MM.1S cells
T2 construct: whole, on cells; Endogenous GPRC5D on multiple myeloma cell lines; also called G-protein coupled receptor family C group 5 member D; MM.1S, MOLP-8, L363, RPMI8226 cells

GPRC5D on MM.1S cells [3] = target: T3, GPRC5D on MM.1S cells (human, UniProt Q9NZD1 1-345); test: cell-based or functional assay
GPRC5D on MM.1S cells [4] = target: T3, GPRC5D on MM.1S cells; test: cell-based or functional assay; remark: listed apart in the source
GPRC5D on MM.1S cells [5] = target: T3, GPRC5D on MM.1S cells; test: FACS on MM.1S cells
Method: To evaluate the binding affinity of the generated chimeric bispecific antibody to T cells, the isolated CD3⁺ T cells were stained by antibodies and the binding affinity was determined by FACS analysis. The protocol of FACS analysis is described as follows: [0785] (a) CD3⁺ T cells were isolated from normal donors. [0786] (b) The isolated CD3⁺ T cells were washed by Staining Buffer (PBS+1% BSA) in round bottom 96-well plate. […] (c) Antibody dilutions were added to each well and mixed with the CD3+ T cells, incubated at 4 degrees for 1 hour. […] (d) Cells were spined at 300 g for 3 minutes, then the supernatants were discarded. [0789] (e) Cells were washed with Staining Buffer. [0790] (f) Step (d) was repeated, and the cells were incubated with secondary antibody in Staining Buffer for 0.5 hours at 4 degrees. [0791] (g) After incubation, step (d)-(e) were repeated. [0792] (h) Cells were resuspended in Staining Buffer and fluorescence signals were recorded by flow cytometry.
The binding affinities of the generated humanized Fab-scFv-Fab bispecific antibodies to MM.1S were evaluated by FACS analysis. The protocol for FACS analysis is identical to that described in Example 1.2, except that MM.1S were used in this example.

T1 sequence (P07766 23-207, chain 1 of 3): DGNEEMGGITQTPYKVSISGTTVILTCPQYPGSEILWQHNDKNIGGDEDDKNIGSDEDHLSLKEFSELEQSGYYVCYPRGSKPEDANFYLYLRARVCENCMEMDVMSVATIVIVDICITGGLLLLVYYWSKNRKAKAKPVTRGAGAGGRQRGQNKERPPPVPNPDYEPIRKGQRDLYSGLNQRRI
T1 sequence (P04234 22-171, chain 2 of 3): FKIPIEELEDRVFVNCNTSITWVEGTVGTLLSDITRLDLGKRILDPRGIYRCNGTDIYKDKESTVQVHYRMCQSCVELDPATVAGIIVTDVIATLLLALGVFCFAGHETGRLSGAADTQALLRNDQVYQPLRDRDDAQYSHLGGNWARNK
T1 sequence (P09693 23-182, chain 3 of 3): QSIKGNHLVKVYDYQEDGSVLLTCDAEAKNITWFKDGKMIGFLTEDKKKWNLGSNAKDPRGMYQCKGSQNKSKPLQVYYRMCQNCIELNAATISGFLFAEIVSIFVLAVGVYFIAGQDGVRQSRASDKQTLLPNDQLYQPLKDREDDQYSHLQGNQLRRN
T3 sequence (Q9NZD1 whole entry): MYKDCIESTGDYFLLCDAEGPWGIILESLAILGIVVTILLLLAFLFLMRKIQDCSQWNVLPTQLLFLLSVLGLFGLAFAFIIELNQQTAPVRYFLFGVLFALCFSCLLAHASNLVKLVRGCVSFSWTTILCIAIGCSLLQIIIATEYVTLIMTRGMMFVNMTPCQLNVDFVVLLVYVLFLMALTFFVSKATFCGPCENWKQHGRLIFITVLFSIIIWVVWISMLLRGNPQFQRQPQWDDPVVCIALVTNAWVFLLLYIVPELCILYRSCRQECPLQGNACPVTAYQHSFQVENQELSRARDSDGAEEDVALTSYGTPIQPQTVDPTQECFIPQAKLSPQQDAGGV
T2 sequence (Q9NZD1 whole entry): as above

| Binder | binding result [1] | binding result [2] | other results |
| --- | --- | --- | --- |
| B1 | binds | binds | – |
| B2 | binds | binds | – |
| B3 | binds | binds | – |
| B4 | binds | binds | – |
| B5 | binds | binds | – |
| B6 | binds | binds | – |
| B7 | binds | binds | – |
| B8 | binds | binds | – |
| B9 | binds | binds | – |
| B10 | binds | binds | – |
| B11 | binds | binds | – |
| B12 | binds | binds | – |
| B13 | binds | binds | – |
| B14 | binds | binds | – |
| B15 | – | – | Ratio of Top RLU (relative to ATG-Bis-40E9), luciferase assay on MM.1S (GPRC5D on MM.1S cells [3]): 0.04 ratio; Ratio of Top cytotoxicity (relative to ATG-Bis-40E9), MM.1S cytotoxicity (GPRC5D on MM.1S cells [4]): 0.06 ratio; Ratio of EC50 (relative to ATG-Bis-40E9) (GPRC5D on MM.1S cells [5]): 0.824 ratio; Ratio of Top MFI (relative to ATG-Bis-40E9) (GPRC5D on MM.1S cells [5]): 0.877 ratio |
| B16 | – | – | Ratio of EC50 (relative to ATG-Bis-40E9), luciferase assay on MM.1S (GPRC5D on MM.1S cells [3]): 18 ratio; Ratio of Top RLU (relative to ATG-Bis-40E9), luciferase assay on MM.1S (GPRC5D on MM.1S cells [3]): 1.38 ratio; Ratio of IC50 (relative to ATG-Bis-40E9), MM.1S cytotoxicity (GPRC5D on MM.1S cells [4]): 9.82 ratio; Ratio of Top cytotoxicity (relative to ATG-Bis-40E9), MM.1S cytotoxicity (GPRC5D on MM.1S cells [4]): 0.99 ratio; Ratio of EC50 (relative to ATG-Bis-40E9) (GPRC5D on MM.1S cells [5]): 1.14 ratio; Ratio of Top MFI (relative to ATG-Bis-40E9) (GPRC5D on MM.1S cells [5]): 0.989 ratio |
| B17 | – | – | Ratio of EC50 (relative to ATG-Bis-40E9), luciferase assay on MM.1S (GPRC5D on MM.1S cells [3]): 10.2 ratio; Ratio of Top RLU (relative to ATG-Bis-40E9), luciferase assay on MM.1S (GPRC5D on MM.1S cells [3]): 0.71 ratio; Ratio of IC50 (relative to ATG-Bis-40E9), MM.1S cytotoxicity (GPRC5D on MM.1S cells [4]): 18.4 ratio; Ratio of Top cytotoxicity (relative to ATG-Bis-40E9), MM.1S cytotoxicity (GPRC5D on MM.1S cells [4]): 0.96 ratio; Ratio of EC50 (relative to ATG-Bis-40E9) (GPRC5D on MM.1S cells [5]): 1.15 ratio; Ratio of Top MFI (relative to ATG-Bis-40E9) (GPRC5D on MM.1S cells [5]): 1.02 ratio |
| B18 | – | – | Ratio of EC50 (relative to ATG-Bis-40E9), luciferase assay on MM.1S (GPRC5D on MM.1S cells [3]): 96.4 ratio; Ratio of Top RLU (relative to ATG-Bis-40E9), luciferase assay on MM.1S (GPRC5D on MM.1S cells [3]): 0.28 ratio; Ratio of IC50 (relative to ATG-Bis-40E9), MM.1S cytotoxicity (GPRC5D on MM.1S cells [4]): 87.7 ratio; Ratio of Top cytotoxicity (relative to ATG-Bis-40E9), MM.1S cytotoxicity (GPRC5D on MM.1S cells [4]): 0.87 ratio; Ratio of EC50 (relative to ATG-Bis-40E9) (GPRC5D on MM.1S cells [5]): 0.926 ratio; Ratio of Top MFI (relative to ATG-Bis-40E9) (GPRC5D on MM.1S cells [5]): 0.874 ratio |

From patent publication US20260193348A1 (ANTENGENE BIOLOGICS, published 2026)
